Reference: US20250262244A1 (published 2025)

Experiments:
[1] = molecular target: T1, EWSR1/WT1 fusion protein (junction of EWS and WT1) peptide on HLA-A*03 (human); experiment: cytokine release
T1 peptide: SSYGQQSEK

[2] = molecular target: T2, EWSR1/WT1 fusion protein (junction of EWS and WT1) peptide on HLA-A*11 (human); experiment: cytokine release
T2 peptide: SSYGQQSEK

[3] = molecular target: T1, EWSR1/WT1 fusion protein (junction of …); experiment: multimer staining

B1: TCR15 (TCR, V domains shown)
Valpha: QKEVEQDPGPLSVPEGAIVSLNCTYSNSAFQYFMWYRQYSRKGPELLMYTYSSGNKEDGRFTAQVDKSSKYISLFIRDSQPSDSATYLCAMGGGSNYKLTFGKGTLLTVNP
Vbeta: DSGVTQTPKHLITATGQRVTLRCSPRSGDLSVYWYQQSLDQGLQFLIQYYNGEERAKGNILERFSAQQFPDLHSELNLSSLELGDSALYFCASSPPGQTNYGYTFGSGTRLTVV
B1: recognises [1]; recognises [2].

B2: TCR14 (TCR, V domains shown)
Valpha: GQQLNQSPQSMFIQEGEDVSMNCTSSSIFNTWLWYKQDPGEGPVLLIALYKAGELTSNGRLTAQFGITRKDSFLNISASIPSDVGIYFCAGQGASGTYKYIFGTGTRLKVLA
Vbeta: DAGVIQSPRHEVTEMGQEVTLRCKPISGHNSLFWYRQTMMRGLELLIYFNNNVPIDDSGMPEDRFSAKMPNASFSTLKIQPSEPRDSAVYFCASSPGTSDEFFGPGTRLTVL
B2: recognises [3].

B3: TCR12 (TCR, V domains shown)
Valpha: AQKVTQAQTEISVVEKEDVTLDCVYETRDTTYYLFWYKQPPSGELVFLIRRNSFDEQNEISGRYSWNFQKSTSSFNFTITASQVVDSAVYFCALSEMQGGSEKLVFGKGTKLTVNP
Vbeta: DSGVTQTPKHLITATGQRVTLRCSPRSGDLSVYWYQQSLDQGLQFLIHYYNGEERAKGNILERFSAQQFPDLHSELNLSSLELGDSALYFCASSTSSGSPDTQYFGPGTRLTVL
B3: recognises [3].
